The results in this text go back to the supplement of paper PMC9233669.

Series [1] has as its system biotinyl-Phe-oxazolone. Put plainly: self-aminoacylation, catalytic enhancement (BFO) (fold over background); higher = more active; k-Seq, kA / k0A0; sequences stand for … in GGGAAUGGAUCCACAUCUACGAAUUC…UUCACUGCAGACUUGACGAAGCUG
Put shortly: (§1)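 Mutagenized RNA pools with a 21-nt variable region (0.43 μM) were reacted with each biotinyl-aminoacyl-oxazolone at 2–1250 μM for 90 minutes at room temperature, in 50 μL HEPES/NaCl/KCl/MgCl2/CaCl2 buffer containing 5% acetonitrile at pH 6.9–7.0. RNA captured on streptavidin was quantified by triplicate qPCR and by Illumina sequencing. The fraction reacted for each sequence was fit to a pseudo-first-order model with bootstrapping, and catalytic enhancement is the median kA divided by the uncatalyzed rate, taken as the low-activity peak of a bimodal Gaussian fit.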

The test system of series [2] is biotinyl-Ile-oxazolone. Put plainly: self-aminoacylation, catalytic enhancement (BIO) (fold over background); higher = more active; k-Seq, kA / k0A0; sequences stand for … in GGGAAUGGAUCCACAUCUACGAAUUC…UUCACUGCAGACUUGACGAAGCUG
Put shortly: as §1

In series [3] the test system is biotinyl-Met-oxazolone. Kind of series: self-aminoacylation, catalytic enhancement (BMO) (fold over background); higher = more active; k-Seq, kA / k0A0; sequences stand for … in GGGAAUGGAUCCACAUCUACGAAUUC…UUCACUGCAGACUUGACGAAGCUG
An outline of the steps:
as §1

The subject of series [4] is biotinyl-Val-oxazolone. Kind of series: self-aminoacylation, catalytic enhancement (BVO) (fold over background); higher = more active; k-Seq, kA / k0A0; sequences stand for … in GGGAAUGGAUCCACAUCUACGAAUUC…UUCACUGCAGACUUGACGAAGCUG
An outline of the steps:
as §1

The subject of series [5] is biotinyl-Leu-oxazolone. Kind of series: self-aminoacylation, catalytic enhancement (BLO) (fold over background); higher = more active; k-Seq, kA / k0A0; sequences stand for … in GGGAAUGGAUCCACAUCUACGAAUUC…UUCACUGCAGACUUGACGAAGCUG
Put shortly:
as §1

In series [6] the test system is biotinyl-Trp-oxazolone. Put plainly: self-aminoacylation, catalytic enhancement (BWO) (fold over background); higher = more active; k-Seq, kA / k0A0; sequences stand for … in GGGAAUGGAUCCACAUCUACGAAUUC…UUCACUGCAGACUUGACGAAGCUG
Put shortly: as §1

This sample holds only a part of the variants without activity.

Turning to “AUGUCUGCUAAUAGUCGCAAG [Fam3.1 aminoacylation ribozyme variant]”, the self-aminoacylation stood at 35.5 in series [1]; 1.91 in series [2]; 2.25 in series [3]; 1.56 in series [4]; 1.74 in series [5]; 9.53 in series [6].
Regarding “AUUCACCUCGGUCAUCGGGGG [Fam2.2 aminoacylation ribozyme variant]”, the self-aminoacylation in series [1] is 12.8; in series [2], 2.66; in series [3], 3.13; in series [4], 2.67; in series [5], 2.98; in series [6], 2.72.
For the sequence “AUUCUCCUUGGUCAUCGGGUG [Fam2.2 aminoacylation ribozyme variant]”, the self-aminoacylation worked out at 75 in series [1]; 6.85 in series [2]; 9.71 in series [3]; 7.53 in series [4]; 13.8 in series [5]; 9.53 in series [6].
In the case of “AUUCACCUAGGUCAUCGGUGG [Fam2.2 aminoacylation ribozyme variant]”, the self-aminoacylation amounted to 4.26 in series [1]; 1.5 in series [2]; 1.97 in series [3]; 1.52 in series [4]; 1.85 in series [5]; 1.81 in series [6].
As for “AAGUUUGCUAUUAGUUGCAAG [Fam3.1 aminoacylation ribozyme variant]”, the self-aminoacylation in series [1] turned out to be 1.46; in series [2], 0.855; in series [3], 0.859; in series [4], 0.874; in series [5], 0.96; in series [6], 1.01.
Consider “CUUACCCUGGUCUUCGAGUGA [Fam2.1 aminoacylation ribozyme variant]”, for which the self-aminoacylation in series [1] was 17.9; in series [2], 2.29; in series [3], 3.87; in series [4], 2.64; in series [5], 4.29; in series [6], 5.
For the sequence “UUACUUCUAACAAUCGGUCUG [Fam1A.1 aminoacylation ribozyme variant]”, the self-aminoacylation in series [1] was 0.907; in series [2], 1.08; in series [3], 1.09; in series [4], 1.08; in series [5], 1.11; in series [6], 0.836.
In the case of “AUUACCCUGGUCAUCGGCUGA [Fam2.1 aminoacylation ribozyme variant]”, the self-aminoacylation in series [1] was determined as 4.87; in series [2], 2.74; in series [3] it was 1.54; in series [4] it was 3.04; in series [5], 2.77; in series [6], 2.77.
For the sequence “AAUCACCUAGGUCAGCGGGUG [Fam2.2 aminoacylation ribozyme variant]”, the self-aminoacylation in series [1] stood at 28.9; in series [2], 4.05; in series [3], 4.61; in series [4], 2.9; in series [5] it was 4.16; in series [6], 4.58.
As to “AUUCUCCUAGGUCAUCGGGUG [Fam2.2 aminoacylation ribozyme variant]”, the self-aminoacylation in series [1] was determined as 82.4; in series [2], 8.11; in series [3], 13; in series [4], 8.06; in series [5], 17.7; in series [6], 12.3.
Regarding “ACUCACAUAGGUCAUCGGGUG [Fam2.2 aminoacylation ribozyme variant]”, the self-aminoacylation in series [1] is 69.5; in series [2], 6.79; in series [3] it was 9.37; in series [4], 6.65; in series [5], 10.6; in series [6] it was 10.2.
On to “AUUACCCUAGUCAUCGAGUGU [Fam2.1 aminoacylation ribozyme variant]”, for which the self-aminoacylation amounted to 6.11 in series [1]; 1.95 in series [2]; 2.47 in series [3]; 1.95 in series [4]; 2.55 in series [5]; 2.62 in series [6].
Turning to “CCACACUUGAACCAAUCGGUC [Fam1B.1 aminoacylation ribozyme variant]”, the self-aminoacylation amounted to 0.969 in series [1]; 0.804 in series [2]; 0.673 in series [3]; 0.819 in series [4]; 0.635 in series [5]; 0.742 in series [6].
Turning to “AUUAACCUGGACAUCGAGUGA [Fam2.1 aminoacylation ribozyme variant]”, the self-aminoacylation in series [1] was 32.9; in series [2], 2.99; in series [3], 6.63; in series [4] it was 2.89; in series [5] it was 6.88; in series [6], 8.58.
For the sequence “AUUUCCUUGGUCAUCGAGUGA [Fam2.1 aminoacylation ribozyme variant]”, the self-aminoacylation in series [1] is 43.8; in series [2], 4.35; in series [3], 8.2; in series [4] it was 4.63; in series [5], 8.92; in series [6], 11.1.
As for “AUUACUAUGGUCAUCGAGUGA [Fam2.1 aminoacylation ribozyme variant]”, the self-aminoacylation in series [1] stood at 22.6; in series [2] it was 3.32; in series [3] it was 6.37; in series [4], 3.31; in series [5], 6.66; in series [6], 8.33.
As to “AUUACGCUGGUCAUUGAGUGA [Fam2.1 aminoacylation ribozyme variant]”, the self-aminoacylation in series [1] was found to be 21.2; in series [2], 3.29; in series [3], 5.32; in series [4], 3; in series [5] it was 5.87; in series [6] it was 6.92.
For “AGUCAUCUAGGUCAUCGGGUG [Fam2.2 aminoacylation ribozyme variant]”, the self-aminoacylation in series [1] was found to be 53.9; in series [2], 5.24; in series [3], 7.32; in series [4], 5.47; in series [5] it was 7.92; in series [6] it was 9.27.
“CUUCACCGAGGUCAUCGGGUG [Fam2.2 aminoacylation ribozyme variant]”: the self-aminoacylation in series [1] worked out at 59.7; in series [2] it was 3.01; in series [3] it was 6.2; in series [4] it was 4.68; in series [5], 7.45; in series [6] it was 5.44.
For “AUUACCCGGGUCAUCGAAUGA [Fam2.1 aminoacylation ribozyme variant]”, the self-aminoacylation worked out at 0.592 in series [1]; 1 in series [2]; 0.972 in series [3]; 1.29 in series [4]; 1.25 in series [5]; 0.515 in series [6].
As to “AUUUACCUAGGACAUCGGGUG [Fam2.2 aminoacylation ribozyme variant]”, the self-aminoacylation in series [1] turned out to be 10.9; in series [2] it was 2.26; in series [3] it was 2.48; in series [4] it was 2.23; in series [5] it was 3.45; in series [6] it was 2.29.
On to “CCACACUUAAAUCAAUCGGUC [Fam1B.1 aminoacylation ribozyme variant]”, for which the self-aminoacylation in series [1] stood at 0.699; in series [2], 0.829; in series [3], 0.589; in series [4] it was 0.914; in series [5], 0.787; in series [6] it was 0.868.
“AUUACCCUGGUGUUCGAGUGA [Fam2.1 aminoacylation ribozyme variant]”: the self-aminoacylation in series [1] came out at 45.5; in series [2], 2.73; in series [3], 5.65; in series [4], 3.21; in series [5], 6.71; in series [6], 7.61.
As to “CUAGUUCACACAAUCGGUCUG [Fam1A.1 aminoacylation ribozyme variant]”, the self-aminoacylation in series [1] is 2.8; in series [2] it was 1.28; in series [3] it was 1.13; in series [4] it was 1.14; in series [5], 1.36; in series [6] it was 1.19.
Turning to “AAGUUUGCUAAUUGUCGCAAG [Fam3.1 aminoacylation ribozyme variant]”, the self-aminoacylation in series [1] was determined as 1.37; in series [2], 0.834; in series [3], 0.788; in series [4] it was 0.846; in series [5], 0.764; in series [6], 1.06.
